Common to all, as to test: two-hybrid library CCNG1;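 further: natural log of median RNA to DNA barcode read ratio; higher means stronger binding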
The target in one test is T1, 4H370-bH.
T1 chain: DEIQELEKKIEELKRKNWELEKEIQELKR

A further test concerns the target T2, 4H754-bH.
T2 chain: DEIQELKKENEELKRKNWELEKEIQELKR

For a further test, the target named is T3, 4H967-bH.
T3 chain: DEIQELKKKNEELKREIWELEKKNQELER

The target of a further test is T4, 4H2729-bH.
T4 chain: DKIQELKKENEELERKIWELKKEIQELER

A further test addresses T5, 4H1828-bH.
T5 chain: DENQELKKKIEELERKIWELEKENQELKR

A further test addresses T6, 4H3354-bH.
T6 chain: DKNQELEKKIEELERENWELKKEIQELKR

The next test concerns the target T7, 4H687-bH.
T7 chain: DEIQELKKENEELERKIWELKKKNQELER

In the next test the target is T8, 4H953-bH.
T8 chain: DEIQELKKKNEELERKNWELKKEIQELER

The target in a further test is T9, 4H3185-bH.
T9 chain: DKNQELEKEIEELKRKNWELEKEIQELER

Another test addresses T10, 4H2576-bH.
T10 chain: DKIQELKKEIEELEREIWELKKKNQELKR

Another test addresses T11, 4H883-bH.
T11 chain: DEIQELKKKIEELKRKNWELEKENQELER

Another test deals with T12, 4H338-bH.
T12 chain: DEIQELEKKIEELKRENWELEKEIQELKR

In the next test the target is T13, 4H72-bH.
T13 chain: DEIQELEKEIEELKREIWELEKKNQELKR

The target of a further test is T14, 4H454-bH.
T14 chain: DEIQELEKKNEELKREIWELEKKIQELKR

The next test deals with T15, 4H797-bH.
T15 chain: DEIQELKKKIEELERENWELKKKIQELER

For a further test, the target named is T16, 4H2610-bH.
T16 chain: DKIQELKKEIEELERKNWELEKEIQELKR

In another test the target is T17, 4H3427-bH.
T17 chain: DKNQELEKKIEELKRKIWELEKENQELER

A further test addresses T18, 4H607-bH.
T18 chain: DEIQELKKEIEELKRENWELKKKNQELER

The next test has as its target T19, 4H607-bA.
T19 chain: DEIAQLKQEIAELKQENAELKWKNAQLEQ

The target in the next test is T20, 4H717-bH.
T20 chain: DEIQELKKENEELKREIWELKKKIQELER

A further test has as its target T21, 4H918-bH.
T21 chain: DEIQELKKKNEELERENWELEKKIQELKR

The target in the next test is T22, 4H331-bH.
T22 chain: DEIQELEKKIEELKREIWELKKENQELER

Another test has as its target T23, 4H1446-bH.
T23 chain: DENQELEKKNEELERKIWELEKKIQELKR

In the next test the target is T24, 4H4001-bH.
T24 chain: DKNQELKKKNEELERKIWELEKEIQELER

A further test deals with T25, 4H4001-bA.
T25 chain: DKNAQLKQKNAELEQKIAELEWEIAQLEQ

The target in the next test is T26, 4H949-bA.
T26 chain: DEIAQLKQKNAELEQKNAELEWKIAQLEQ

For a further test, the target named is T27, 4H1845-bH.
T27 chain: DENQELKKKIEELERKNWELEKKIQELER

For another test, the target named is T28, 4H908-bH.
T28 chain: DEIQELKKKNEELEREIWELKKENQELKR

The target in the next test is T29, 4H3843-bH.
T29 chain: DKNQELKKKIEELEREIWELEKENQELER

A further test has as its target T30, 4H3189-bH.
T30 chain: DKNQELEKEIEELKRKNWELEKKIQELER

The next test deals with T31, 4H2667-bH.
T31 chain: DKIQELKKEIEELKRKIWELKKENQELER

A further test has as its target T32, 4H3782-bH.
T32 chain: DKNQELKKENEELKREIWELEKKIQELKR

The next test addresses T33, 4H3112-bH.
T33 chain: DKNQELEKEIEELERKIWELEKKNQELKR

The target of another test is T34, 4H568-bH.
T34 chain: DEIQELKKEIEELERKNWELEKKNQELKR

The next test addresses T35, 4H2697-bH.
T35 chain: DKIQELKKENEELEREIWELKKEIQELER

A further test has as its target T36, 4H462-bH.
T36 chain: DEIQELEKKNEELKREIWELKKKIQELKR

In another test the target is T37, 4H2442-bH.
T37 chain: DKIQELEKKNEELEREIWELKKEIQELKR

For another test, the target named is T38, 4H3606-bH.
T38 chain: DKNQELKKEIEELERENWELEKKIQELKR

The target of the next test is T39, 4H2618-bH.
T39 chain: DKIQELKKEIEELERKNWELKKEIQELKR

For a further test, the target named is T40, 4H3855-bH.
T40 chain: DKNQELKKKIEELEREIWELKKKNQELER

The target of a further test is T41, 4H2883-bN.
T41 chain: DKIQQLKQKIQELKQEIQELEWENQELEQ

The target of the next test is T42, 4H2944-bN.
T42 chain: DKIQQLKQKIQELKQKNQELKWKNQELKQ

A further test addresses T43, 4H491-bN.
T43 chain: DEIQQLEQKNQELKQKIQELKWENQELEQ

The target in the next test is T44, 4H2937-bN.
T44 chain: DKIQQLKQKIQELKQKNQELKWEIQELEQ

Another test concerns the target T45, 4H342-bN.
T45 chain: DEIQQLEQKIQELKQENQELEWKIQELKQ

A further test deals with T46, 4H48-bN.
T46 chain: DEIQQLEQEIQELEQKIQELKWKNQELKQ

In another test the target is T47, 4H2937-bA.
T47 chain: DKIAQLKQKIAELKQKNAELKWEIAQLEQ

In another test the target is T48, 4H342-bA.
T48 chain: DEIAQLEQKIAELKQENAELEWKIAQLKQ

The next test deals with T49, 4H2944-bA.
T49 chain: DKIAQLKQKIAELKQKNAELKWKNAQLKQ

In a further test the target is T50, 4H2883-bA.
T50 chain: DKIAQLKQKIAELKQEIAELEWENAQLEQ

The target in another test is T51, 4H491-bA.
T51 chain: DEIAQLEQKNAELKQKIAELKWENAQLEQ

The target of a further test is T52, 4H48-bA.
T52 chain: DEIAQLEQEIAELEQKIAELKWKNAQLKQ

Take DENQELEKKNEELERKIWELEKKIQELKR [4H1446-bH]: the interaction score is -0.404 with 4H370-bH; 0.109 with 4H754-bH; 0.346 with 4H967-bH; 0.679 with 4H2729-bH; 0.624 with 4H1828-bH; 0.818 in the test with 4H3354-bH. Moreover, the interaction score with 4H687-bH is 0.347; in the test with 4H953-bH, -0.325; with 4H3185-bH, 0.0116; with 4H2576-bH it was 0.59; with 4H883-bH it was 0.0186; with 4H338-bH it was 1.17. For the same molecule, the interaction score in the test with 4H72-bH was -0.157; with 4H454-bH, 0.981; with 4H797-bH, -0.466; with 4H2610-bH, 0.669; with 4H3427-bH, 0.933; in the test with 4H607-bH, -0.622. The interaction score is 0.727 with 4H607-bA; -0.635 in the test with 4H717-bH; -1.41 with 4H918-bH; 1.32 with 4H331-bH; 0.821 in the test with 4H1446-bH; 1.24 in the test with 4H4001-bH. Further, the interaction score is 2.32 with 4H4001-bA; -2.01 in the test with 4H949-bA; 0.192 with 4H1845-bH; -0.161 with 4H908-bH; 1.3 with 4H3843-bH; -1.86 with 4H3189-bH. Also, the interaction score with 4H2667-bH was -0.551; with 4H3782-bH, 0.741; in the test with 4H3112-bH, -0.67; with 4H568-bH it was -2.02; with 4H2697-bH, 1.08; with 4H462-bH, 0.0836. Further, the interaction score in the test with 4H2442-bH was 0.731; with 4H3606-bH, -0.704; with 4H2618-bH it was -0.314; with 4H3855-bH, 0.34.

Consider DKIQQLKQKIQELKQEIQELEWENQELEQ [4H2883-bN], for which the interaction score was 0.96 with 4H2883-bN; 0.237 with 4H2944-bN; -0.669 with 4H491-bN; -1.33 with 4H2937-bN; -1.84 in the test with 4H342-bN; 2 with 4H48-bN.

As to DKIAQLKQKIAELKQEIAELEWENAQLEQ [4H2883-bA], the interaction score was 0.793 with 4H2937-bA; -0.134 with 4H342-bA; 1.15 with 4H2944-bA; 0.521 with 4H2883-bA; -0.886 with 4H491-bA; 1.3 in the test with 4H48-bA.
